This assay deals with A/Udorn/72 (H3N2) influenza virus. The class given is cell-based, A/Udorn/72 (H3N2) influenza virus; human HEK293T cells.

B1: WT MORC3 (protein, UniProt Q14149 1-939, looked up)
MORC family CW-type zinc …: MAAQPPRGIRLSALCPKFLHTNSTSHTWPFSAVAELIDNAYDPDVNAKQIWIDKTVINDHICLTFTDNGNGMTSDKLHKMLSFGFSDKVTMNGHVPVGLYGNGFKSGSMRLGKDAIVFTKNGESMSVGLLSQTYLEVIKAEHVVVPIVAFNKHRQMINLAESKASLAAILEHSLFSTEQKLLAELDAIIGKKGTRIIIWNLRSYKNATEFDFEKDKYDIRIPEDLDEITGKKGYKKQERMDQIAPESDYSLRAYCSILYLKPRMQIILRGQKVKTQLVSKSLAYIERDVYRPKFLSKTVRITFGFNCRNKDHYGIMMYHRNRLIKAYEKVGCQLRANNMGVGVVGIIECNFLKPTHNKQDFDYTNEYRLTITALGEKLNDYWNEMKVKKNTEYPLNLPVEDIQKRPDQTWVQCDACLKWRKLPDGMDQLPEKWYCSNNPDPQFRNCEVPEEPEDEDLVHPTYEKTYKKTNKEKFRIRQPEMIPRINAELLFRPTALSTPSFSSPKESVPRRHLSEGTNSYATRLLNNHQVPPQSEPESNSLKRRLSTRSSILNAKNRRLSSQFENSVYKGDDDDEDVIILEENSTPKPAVDHDIDMKSEQSHVEQGGVQVEFVGDSEPCGQTGSTSTSSSRCDQGNTAATQTEVPSLVVKKEETVEDEIDVRNDAVILPSCVEAEAKIHETQETTDKSADDAGCQLQELRNQLLLVTEEKENYKRQCHMFTDQIKVLQQRILEMNDKYVKKETCHQSTETDAVFLLESINGKSESPDHMVSQYQQALEEIERLKKQCSALQHVKAECSQCSNNESKSEMDEMAVQLDDVFRQLDKCSIERDQYKSEVELLEMEKSQIRSQCEELKTEVEQLKSTNQQTATDVSTSSNIEESVNHMDGESLKLRSLRVNVGQLLAMIVPDLDLQQVNYDVDVVDEILGQVVEQMSEISST
Consider B1, for which the “viral infectivity” value is recorded as “slight increase in viral infectivity”.
